Results as given in a protein production outcome set (Wang et al. 2014).

Assay: label from the status in PepcDB records

| Sequence | protein production |
| --- | --- |
| MYHILIRKGLLNMKTVLIVGANGRVSIEATKIFLENSRFNVDLFLRNAHRIPDYASNRIKVYEGDAKNIEDLESALNNVDVVFASLSGSLDKQAETIVKAMDNKNVKRLIFVAAPGIYDELPEPFNQWNKEQFGEKLNRYRKASDIIENSDLDYTIIRPGWLTDKNENVYEITAKNETFKGTEVSRKSVASLAVQIAKNPELHSKENIGVNKPNTEGNKPAWFN | failed |
| MYHVTVGISEKEYDAFAIASSQTNLLHSSKWAQVKSNWQNERLGFYKDDQLVAVASILIKSLPLGFTMLYIPRGPIMDYSNKELVNFVLKTLKNFGRKKRAVFAKFDPALLLRQYHLKEENVAEEIDESRQAIDNLKSAGAQWIGPTKAISETIQPRFQANIYTKANIEENFPKHTKRLIKDAKHRGVQIYRANIDDLPKFATVVALTENRKGVALRNENYFHQLMTIYGEDAYLYLAKVNLPKRLAQFKEQLLQIQKDLSETPSHQKSRLTRLNQQEASVKQYILEFQEFSKKYPDEPVIAGILSIRFGNVLEMLYAGMDDSFRKFYPQYLLNARVFEDAFKNDIVSANLGGVEGSLNDGLTKFKSNFNPMFEEYIGEFNLAINPLLYKLANLAYTIRKKQRHSH | failed |
| MYIMNIFITDFYHRNDLLDKAEAMIANHWPAFMMGTSVDDSYWERLYDVPFSHYQFMAVLKTQTEEKVIGVINSIALPWQTNSLNDLPDEGWDRVFQLGMEAEEQQLPCHLISALSVTIDHHYRGKGIAQRLINTLKEHAKKQGYLGVAVPVRPTLKHCYPLHSFAEYCQWKNDNDEPFDPWIRTHWRL | failed |
| MYKCLIISILTWFSCIVSVYAQAIPKEARNYLEEGKIYYDGANYLKALDSYLGAYKFVPNDPGVNYSIALCYIQTYSYDKALTYLIPAKKAGIKDPLLDYYMGLAYHANSNIDEALKSLTAFQSTLRSSDKELTAQTAKYITYCNNAKTLMLTPVKMTITNLGASVNSAYPDYNPAISVDESTIIYTSRRPNSTGGLISEMDGHYFEDIYMSNKQTNNSWGTSIQIDQTINTTSHDACVGLSSEGQTMIVYKDDGGGDLYYSNLSGQNWSKPISFGKAINTDGWEACGNFSPDGNYLFFVSNKKGGFGGTDIYYAVKNAAGVWGAPVNMGPEINTKEDEFSPYLHADGKTFYFSSQAHTSMGGFDIFQSTIDLSMQPIAVKSKPENLGYPINTVGDEIYFVWSADNKRAYFSSAREGGLGDKDLYLLERPVAKAALVLLKGTISDCKTKEFIQASITVTDIESGKLIGKYVSNSSTGKYIVTLPAGKNYSITVEAKGYLFHSKNINIPKLEEFKEIDDVICLDKIDIGTTIVLNNVFFDVNKSTLRKESETELDKLFDILSKNPKIKIEVAGHTDSDGDTQANLTLSDARAHTVKDYLIGKGISADRIIYVGHGEGKPVVPNDTPENKQLNRRTEIKILEN | failed |
| MYKLSLVIKSLIIALLTTSLLSAGFQLRGDYLLDDDLQTLYVSSSDIHGELTRLVKLNLTRNQVNVLKHSKADVPELRILSDKLDRRTLSLFSNGQVAEYELIYSVHYQVRFTGEDARDFRFELYRDYQDDPNIALAKSRELSLLLSEMRTSAADKILRDLARIQRLEHHHHHH | failed |
| MYKSLFTIIILLYSASSYAKSESPPASTITFIAQIDHVELNKTALSHDMKLVLADRFYFKTSNPCETNSISARPESMDITDKAYADKLKKLETPFLDDRYFFMTINQCDGNGTPMLTDIKVCTTELCGAEYTKKMSTVWLDETLKPTAKRLAIYFIQSPLPYDEEKKQWKVTGWYISSTDNQSSTKQIAFEGYTDTDNLSDSKFISSFKSWFESGKIKNIANYNPKGERDGKYESYYNSNGNVYESLSFSNGLINGEFITYYENGAIESKRHFNNDKIKDGECPHFYEDGKIKQQHSYLNSKLDGPAYEYYPDGKLMQENFYQQSVLIGNDTSYYQSGKISSIHNRNSRGQYDGANERYSEEGKLLSKSVYKDGKQISVQTWYENGQKEEEKHFDEQGQLNGLVKQWYKNGNLAKSQNYKHDILDGNSEEWYENGIPESLYPYKNGKTDGIAKSWNKYGKLTYSIEYKNGVENGAYRNWSKNTGKLTKETLYVNGIRQGVEKEFNDRTGKLLTSTQYVNNKRHGTEETYDQNGIKYITCYQNDQKLSSLDNPTQIKDNATTGDSSAQFALGKYEFICANIDEGIKWLTKSAEQKNTDAIYFLATAYKGNGIPANNEKYLAYLQQAATLGSSNAQAEIGYLYLIGKELPQNLPDAGVWFKKAAAQGNFAAHFYLGRMYQNGDGVERNMEKARFHLSNAAEGGIEPALKALNELEHQTK | failed |
| MYLAASADTKPLPDSDDEEDQHTNAVSIPIAVHNMASALLQVEQAIGKRFLKEPYGMKKWDPKQEALKLACDSRLHQWEVSLMESTSFAQVFLHLNILHDCIQWRRSTNKSLCKVCRRGSDPEKMLLCDECNAGTHMFCLKPKLRSVPPGNWYCNDCVKSLGLSNG | failed |
| MYLVCGEALFDVFSLESAARSNELGFTAIAGGSPFNVAVGLRRLGVEAALFGGLSSDYLGARLRRVLEEEGVDCGFLVPSDAPTTLAMVGLDASGSAQYQFRGEGCADRQVRLEHLPTLDGRIRGLHVGSYTLVVTPVADTLLALVRRESGRRLVSLDPNVRLDPQPDIDLWRRRVEAFASHAHLIKASEEDLALLYPGRDPGEVARGWLNPRCRLVFVTHGGAGASVHCTHGSWSRPADTALPLRDTVGAGDTFQAATLAYLRRLDADSPAGLAALSREAIDAMLAFAIRAAAVTCSRVGPDLPFAHEL | failed |
| MYNAQLGIGILKYVNTMTKYSALLVLFLFSMIANSINAQPFVALDNRNKIELNEHDLWFKTQSLDTNPSFLALSQLHQNANRVTSTFGGSGAYISKIKLTNTKGQKDTWFVNIHAVYLDIGTAYWQPEHGEPIVLESFGHMGSENPKLAHSQAFSLLLNQNESGTLWVYIQAKMFATPVVVELYSKKEFYKKQFITNSISTISFTVMMTLALIAFFIYLRTKYLVTLACTGYIGIQGLGWFTASGSFGHLLTVSAFNPVYSGIIIFPFAIASASQFTKLLFNCPQKHPKLTLTFNLLSIVCFSLGIIMPFIPFTQSFLISHIIATIWIPLCIGTGIFMLAKNDFRAKYYLIGNLVYGFTLAGYILSHLYKIDWNISLEVIVQIALTIDCMCILLSLSEWLQIQQKEFHRSYAISRIDPLTQIGNRFAQNEKLASLKGPYCITFIDLDGFKKINDKLGHEEGDKVLIATANIMQKKLQELGSIYRCGGDEFIWVVDIENVQQTEAIITKLSDLLLQTEKELQHRGWSEAGLSFGIATSFETLNQSECLSLADQRMYKYKQDKKSIKGLAACS | failed |
| MYNILLIFIAFLLVLLNAFFVSAEFGMVKLRATRIQAIKENYGLRGRILEQVHQNLDAYLSACQLGITLASLGLGWIGEPAFAELLGPLFVALGISSVHIVTISSFFIAFFLISFLHIVIGELMPKSIAIRQSELISIWTAVPLYWFYWIMYPAIWLLNTCSNFFLKLSGMDIKNEYEGFYSSEELKLILSGQHLQSELKEDEREILEHTLDLAELNVTEVMRPEDEMIIIDINEPFETIKDKILKYRYSRYPVYDSGTKEMIGVIHVKDLFADLLLQKNINTLKPYVRPVLKVSHKLPAMDLLRKFRAGMPHFALVYKHKSSLLGFVTLDNLLHILIGRIKDEFHKTHEDWVKNSDGTITTKGDCSLYSLERALDCDITLSPDEEELNTLYGLIITRHGKLPNEGEIIQFVEFDALIEKVQDSFITKIKVFPKIKN | failed |
| MYNKTILESQHTLIPMPSTSTNAQPTLAKQLFTMTWPMLFGVLSLMSFQLVDSAFIGQLGVLPLAAQGFTLPLQMVIIGIQVGLGIATTAVISKALGANDARYAKQLGGLVLMIGSIGVAVFGLLIWLLRYPILSLLSAPETVMPIIDSYWPWWLLSSWAGAVLYFYYSICRANGNTMLPGTMMMVTSGVNLVLDPLFIFTLDLGINGAALATLVAFGFGILVVAPRVKRNHWATTQWQDLNVMKSVTSIGNIMGPAMVSQLLPPLSSMLATKLLASFGTAAVAAWALGSRYEFFAIVSVLALTMSMPPMVGRLLGAKNYRDIQSLVGIAVKFILGFQLLIAAITFLLANPLALLMTSDTQVEQVLHMHLMIVPISLGSLGVCMLMVSICNALGKSYTALTISALRLFVFFLPCLWLGAQLDGIRGLLFGACVGNIMAGISAYLTYRKTIHKLAIKQATA | failed |
| MYSMLKRVITEKDLLRQIRLLEQLLNVPQLTAKRLAAQIQTTERTVFSDLQYIRSQLPADWSIETDSSGIRLRNQGNAQTNELWSLFLPQSISIQLLKELLFTKELVTTSFLSTSGVSYETLKRHIKKMNQALRDFHLTIQLTTMTIQLIGAESNIRIFYHRLLVPFTHNNYFFDDYSIHEEHYFQFLKQVYSSELTVETEEIFGACWFFINTIRNKANCRVSQFSFDSKDVLFQLYQPSLAKLYASEGIYLQGEESFFAFFCFLESWNYDNVYGETLASALHTHYSQLRKSLQQFVTNLSTEEARPDLIQTNLLDNLLLLFIKYTESPTLSEQFQLEYQELMTEQAAEDLALSKSNQELLEILSRYTTIEEPTYFLSLASLLEKQAIYSIQAQTMTAYFLFQGEPAWKAFLQQELAAYLGTRVKLQAIEYVELSQLTLNEADIIISNFPLDHLDLPVFYLSLIPTKNELRRLAELTLHSYF | not failed |
| MYSSGNPTNIANPIKDASVQIDLKTVGGKLTLYQTTLCERISGDNIDLGLDLGSQSFLPTYNKNDIQLICCQADASVLWLVPDTVVTRFIQSLDWDTDMDITFTWVLNRDRPKGKETVKYERSVDPLDLPKRSDIQMVLNGSMDGFRVHNLYPKFFRVTGSGDVRSFEDQTDEVSADILINHANFKWWWSFHNLKASENISACEGMDGPVAIIMSEETPPPVGRFIRLQCSDLRMRIPYENLPSCDRLIAICEDLYAARAEGELGVEEVLYWTLVKIYRSPHMLLEYTKLDYDA | failed |
| MYTIYVPGLRDPDLCNHSLMAEILCIYSSNAFEKIRKYDNLFTYVDYGNLKESELYKKRNEEESSFLYKKRILSNNIQDKKLKFDIKKEQFNYGALLFFSLNDGEFLNYISENICGNSVEVLASNNSMTTLVCGDDKGFIRILRNNPKYDDFEIKNTQMIRDVDKECCTKLFNNKIIKIDERRRNSYQTKRKKSIDKQQDLLKKAKMENFSDH | failed |
| MYTYKLQDEKPICSEKLKRLYDSVGWWPERKEIDIQKMLKNSIAIGVWKENELIGFARVVSDGVFRAYLEDVVVHESVRNKGIGEKMLTMLLEEISHINIVSLFCGEKLIKFYGQQQFQVTK | failed |
| MYVREVKDGKVVVAKARTSACGSCPAKNICLSDNEIKLEIDWCGEDLKPGDEVVVDIPEYDPLKVSTLVYFLPLVIFAVTVITGYLFRLKDWVTFVLALGSVFAYYSLFRFRRKDRKPPRILRKVS | failed |
| NAEKVALAKKVADESAVLLENRNDILPLDLNKYKSVAVVGPNSNQAVLGDYAWTMGDTKEAVSLLQGLQESAGDKIMIRHAEGCDWWSQDKSHIAEAVEVVRNSDIAVVAVGTRSTYLGRSPKYSTAGEGFDLSSLELPGVQEELLKEIKKTGKPMIVVLIAGKPLAMPWVKENADALLVQWYAGEQQGCTLADILLGKVNPSGKLNVSFPRSTGNTPCFYNHFVTDREEPFDQPGTPEEPKGHYIFDKPEPLWNFGHGKSYTTF | not failed |
| NAEKVALAKKVADESAVLLENRNDILPLDLNKYKSVAVVGPNSNQAVLGDYAWTMGDTKEAVSLLQGLQESAGDKIMIRHAEGCDWWSQDKSHIAEAVEVVRNSDIAVVAVGTRSTYLGRSPKYSTAGEGFDLSSLELPGVQEELLKEIKKTGKPMIVVLIAGKPLAMPWVKENADALLVQWYAGEQQGCTLADILLGKVNPSGKLNVSFPRSTGNTPCFYNHFVTDREEPFDQPGTPEEPKGHYIFDKPEPLWNFGHGKSYTTFDYVD | failed |
| NDDIIVNWVNRTLSEAGKSTSIQSFKDKTISSSLAVVDLIDAIQPGCINYDLVKSGNLTEDDKHNNAKYAVSMARRIGARVYALPEDLVEVKPKMVMTVFACLMGRGMKRV | not failed |
